The values that follow come from paper PMC6718413, “Improving mass spectrometry analysis of protein structures with arginine-selective chemical cross-linkers” (Nature Communications, 2019).

Assay [1] has as its target T1, Utp4 (UniProt Q06679 1-776).
T1 construct: Utp4, subunit of UtpA; S. cerevisiae is surmised from PDB 5WLC and the printed residue numbers; also called His6-tagged Utp4; Upt4; source: E. coli BL21(DE3), purified (HisTrap, heparin)
T1 sequence: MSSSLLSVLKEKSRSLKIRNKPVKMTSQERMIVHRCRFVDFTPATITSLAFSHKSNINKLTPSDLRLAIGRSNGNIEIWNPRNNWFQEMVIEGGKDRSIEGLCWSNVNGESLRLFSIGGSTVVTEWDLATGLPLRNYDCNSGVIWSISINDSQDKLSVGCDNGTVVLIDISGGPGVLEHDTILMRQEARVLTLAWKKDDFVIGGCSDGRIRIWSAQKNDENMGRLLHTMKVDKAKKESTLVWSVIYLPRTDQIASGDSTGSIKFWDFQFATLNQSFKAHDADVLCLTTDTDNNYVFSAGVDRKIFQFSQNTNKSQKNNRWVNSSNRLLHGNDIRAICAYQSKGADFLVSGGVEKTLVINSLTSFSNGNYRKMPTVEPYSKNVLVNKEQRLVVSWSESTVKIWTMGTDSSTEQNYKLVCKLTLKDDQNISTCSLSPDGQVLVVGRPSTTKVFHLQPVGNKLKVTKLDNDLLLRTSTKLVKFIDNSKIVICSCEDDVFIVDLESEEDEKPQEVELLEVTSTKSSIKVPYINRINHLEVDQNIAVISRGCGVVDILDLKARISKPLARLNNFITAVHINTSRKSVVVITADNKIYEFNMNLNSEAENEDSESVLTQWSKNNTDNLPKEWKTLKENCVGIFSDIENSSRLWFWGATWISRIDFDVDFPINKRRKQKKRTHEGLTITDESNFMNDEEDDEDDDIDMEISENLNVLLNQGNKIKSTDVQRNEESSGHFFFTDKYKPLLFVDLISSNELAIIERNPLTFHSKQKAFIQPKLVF
The assay can be described thus: co-purification; purified Utp5–Utp15 CTD complex, Utp8–Utp9 CTD complex and His6-tagged Utp4 mixed; HisTrap and gel filtration. To be noted: both partners purified. For orientation: In gel filtration, larger molecules generally elute earlier.

Assay [2] deals with T1, Utp4. As to the kind of experiment: cross-linking; UtpA sub-complex (0.5 μg/μL) with 0.5 mM BS^3 at RT for 45 min, quenched with 20 mM NH4HCO3; LC-MS/MS. To be noted: both partners purified.

B1: Utp5–Utp15 CTD complex (complex)
chain 1: TTGTVTVILSQALQSNDHSLLETVLNNRDERVIRDTIFRLKPALAVILLERLAERIARQTHRQGPLNVWVKWCLIIHGGYLVSIPNLMSTLSSLHSTLKRRSDLLPRLLALDARLDCTINKFKTLNYEAGDIHSSEPVVEEDEDDVEYNEELDDAGLIE
chain 2: RSQRRMRAFERNINQFKWSEALDNAFVPGMAKELTLTVLQELRKRGKVRVALYGRDESTLEPLLNWCLKGIEDVRSASIVADWVAVVLELYGNTLESSPVLQELMIDLKTKVRHEIHKSKEAQRIEGMLQLLTS
notes: Utp5 residues 433-591, as m14; Utp15 residues 380-513, as m15; This complex was formed before it was mixed with His6-Utp4
As to B1, the binding result in assay [1] is on record as “binds”.

B2: CTD of Utp15 (residue 380-513) (domain or fragment, UniProt Q04305 380-513, looked up)
chain: B1 chain 2
notes: Utp15, subunit of UtpA, residues 380-513; The tags were cleaved with Ulp1; also called Utp15 CTD
For B2, the binding result in assay [2] is on record as “binds”.

B3: C-terminal domain (CTD) of Utp5 (residue 433-591) (domain or fragment, UniProt Q04177 433-591, looked up)
chain: B1 chain 1
notes: Utp5, subunit of UtpA, residues 433-591; The tags were cleaved with Ulp1; also called Utp5 CTD
Turning to B3, the binding result in assay [2] is on record as “binds”.

B4: Utp8–Utp9 CTD complex (complex)
chain 1: DYPKTLTFLLTHPLFPLSRTRNLLSLLRDQPRLFKQAIVTCPNLPLNELLEELFSIRNRELLLDISFRILQDFTRDSIKQEMKKLSKLDVQNFIEFITSGGEDSSPECFNPSQSTQLFQLLSLVLDSIGLFSLEGALLENLTLYIDKQVEIAERNTELWNLIDTKGFQHGFASSTFDNGTSQKRALPTYTMEYLDI
chain 2: QPEVQHEKKETETKINKKVSKSDQVEIANILSSHLEANSTEILDDLMSGSWTEPEIKKFILTKINTVDHLSKIFLTISKSITQNPWNEENLLPLWLKWLLTLKSGELNSIKDKHTKKNCKHLKSALRSSEEILPVLLGIQGRLEMLRRQAKLREDLAQLSMQEGEDDEIEVIEHSNVISNPLQDQASPVEKLEPDSIVYANGESDEFVD
notes: Utp9 residues 361-569, as m17; This complex was formed before it was mixed with His6-Utp4
In the case of B4, in assay [1], the binding result is “binds”.
